Reference: patent publication CN116178530A (SHANGHAI JUNSHI BIOSCIENCES CO LTD; JUNMENG BIOSCIENCES CO …, dated 2023)

Molecular target: SARS-CoV-2的野生型RBD蛋白(货号SPD-C82E8，ACRO Biosystems) (SARS-CoV-2, UniProt P0DTC2 319-537)

B1: JS5-10 (antibody, human IgG1, kappa, L234A L235A, V domains shown)
VH: EVQLLESGGGLVQPGGSLRLSCAASGFTFSSYAMSWVRQAPGKGLEWVSAIVGSGGSTYYADSVKGRFIISRDNSKNTLYLQMNSLRAEDTAVYYCAKSLIYGHYDILTGAYYFDYWGQGTLVTVSS
VL: DIQMTQSPSSVSASVGDRVTIPCRASQGIGNWLAWYQQKPGKAPKLLIYAASSLQSGVPSRFSGSGSGTDFTLTISSLQPEDFATYYCQQANSFPPFGQGTRLEIKR
Kd: 2.04 nM
koff: 0.000215 s⁻¹
kon: 106000 M⁻¹ s⁻¹
